This is an account of results in patent US9766250B2, “Method for detecting protein-protein interaction” (MEDICAL & BIOLOGICAL LABORATORIES CO., LTD., priority 2011, dated 2017).

The target of assay [1] is T1, interaction between BclX(L) and Bax (Homo sapiens, UniProt Q07817).
T1 construct: region having the 1st to 209th amino acids of the BclX(L) protein; expressed in transfected cells; host or cells: 293 cells, transient
Briefly: Time course of fluorescent foci after ABT-737 addition, BclX(L)/Bax (Example 24). The format is cell-based. To be noted: 293 cells co-expressing p62(PB1)-BclX(L) and AG-Bax; 15 μM. As for the experimental part: (§1) The plasmid DNAs were mixed in equal amounts in the following combinations, and the genes were introduced into 293 cells by the same method as that described in Example 2: • a combination of pp62(PB1)-BclX(L) with pBak-hAG; and • a combination of pp62(PB1)-BclX(L) with phAG-Bax.
(§2) Then, to the 293 cells into these plasmid DNAs were introduced, ABT-737 (manufactured by Santa Cruz Biotechnology, Inc.) was added to the final concentration of 15 μM, and images were obtained by the same method as that described in Example 2 every 30 minutes for the cells co-expressing p62(PB1)-BclX(L) and Bak-AG, and every 5 minutes for the cells co-expressing p62(PB1)-BclX(L) and AG-Bax. On the basis of the obtained images, analysis was performed by the same method as that described in Example 11, and a graph was prepared by plotting a total fluorescence intensity of fluorescent foci (assemblies) against time. Note that, in the graph, the x axis represents time (minutes), provided that time when the drug was added is 0, and the y axis represents the total fluorescence intensity of fluorescent foci (assemblies).

For assay [2], the target named is T2, interaction between BclX(L) and Bak (Homo sapiens, UniProt Q07817).
T2 construct: region having the 1st to 209th amino acids of the BclX(L) protein; expressed in transfected cells; host or cells: 293 cells, transient
The experiment in a line: Time course of fluorescent foci after ABT-737 addition, BclX(L)/Bak (Example 24). The format is cell-based. The note with it: 293 cells co-expressing p62(PB1)-BclX(L) and Bak-AG; 15 μM. As for the experimental part:
as §1, §2

Assay [3] concerns interaction between an ERK substrate and Pin1(ww). Briefly: Time course of fluorescent foci after EGF and U0126, 293 cells (Example 27). It is filed as cell-based. The note with it: same cells; 10 μM, added 14 minutes after EGF. How it is done: On the next day, EGF (manufactured by SIGMA CO.) was added to the cells to the final concentration of 50 ng/ml. Further, 14 minutes thereafter, U0126 was added to the cells to the final concentration of 10 μM. Meanwhile, the cell observation was started 2 minutes before the EGF addition, and the observed images were obtained every 15 seconds. The obtained images were used to analyze a total fluorescence luminance of fluorescent foci (assemblies) by the same method as that described in Example 11, and a graph was prepared by plotting the total fluorescence luminance against time.

The test system of assay [4] is interaction between calmodulin and M13 peptide of myosin light chain kinase 2. To be noted: 200 μM. How it is done: pCalmodulin-hAG and pM13peptide-p62(PB1) were mixed in equal amounts and introduced into HeLaS3 cells by the same method as that described in Example 1. Then, 200 μM histamine (manufactured by Wako Pure Chemical Industries, Ltd.) was added thereto, and fluorescence images were captured over time.

Assay [5] deals with interaction between Rac1 and RhoGDI. Briefly: Fluorescent foci after mevastatin, Rac1/RhoGDI (Example 22). To be noted: cells co-expressing AG-Rac1 and RhoGDI-p62(PB1); 10 μM; 15 hours. It is filed as cell-based. As for the experimental part:
(§3) Then, each of the following combinations of the plasmid DNAs was mixed in equal amounts and introduced into cells by the same method as in Example 2: • a combination of phAG-Rac1 with pp62(PB1)-PBD; and • a combination of phAG-Rac1 with pRhoGDI-p62(PB1). Then, after culturing for 6 hours after the transfection, an inhibitor mevastatin (Enzo Life Sciences, Inc.) against geranylgeranyl group modification was added to the final concentration of 10 μM, allowed for further culturing for 15 hours, and observed.

Assay [6] has as its system interaction between Rac1 and PBD. The experiment in a line: Localization of fluorescent foci after mevastatin, Rac1/PBD (Example 22). It is filed as cell-based. The note with it: cells co-expressing AG-Rac1 and p62(PB1)-PBD; 10 μM; 15 hours. How it is done: as §3
The target in assay [7] is T3, mTOR(FRB) and FKBP12 interaction (Homo sapiens, UniProt P42345+P62942).
T3 construct: region having the 2025th to 2114th amino acids of the mTOR protein; expressed in transfected cells; host or cells: HeLaS3; 293T for some combinations with FKBP12-Tankyrase(SAM)
The experiment in a line: Degree of fluorescent focus (assembly) formation after rapamycin, fluorescent proteins fused to mTOR(FRB) (Example 8, Table 1). The format is cell-based. Details: key to degree of fluorescent focus formation, Tankyrase (SAM): +++: fluorescent foci were observed in 50% or more of the HeLaS3 cells; ++: fluorescent foci were observed in 50% or less of the HeLaS3 cells; +: fluorescent foci were observed in 293T cells expressing a larger amount of proteins than that in the HeLaS3 cells. The note with it: fluorescent protein fused to mTOR(FRB); for degree of fluorescent focus formation, DGKd (SAM): with FKBP12-DGKd(SAM); for degree of fluorescent focus formation, TEL (SAM): with FKBP12-TEL(SAM); for degree of fluorescent focus formation, Tankyrase (SAM): with FKBP12-Tankyrase(SAM), some combinations in 293T cells; for degree of fluorescent focus formation, P62 (PB1): with p62(PB1)-FKBP12. As for the experimental part: Note that plasmid DNAs encoding fusion proteins composed of mTOR(FRB) and the corresponding fluorescent proteins were prepared as appropriate by the same method as that described in Example 2. Moreover, regarding the combinations of FKBP12-Tankyrase(SAM) with mKO2, mKeima, mMiCy1, mKO1, MiCy1, and TGuv, the test was conducted by introducing the genes into 293T cells. Specifically, the 293T cells were cultured in DMEM High glucose (manufactured by SIGMA ALDRICH CO.) containing 10% FBS (manufactured by Equitech-Bio Inc.). Moreover, the 293T cells were seeded onto an 8-well chamber (manufactured by Nunc A/S) 6 hours before the plasmid DNAs were introduced. Further, at the time of the transfection, 200 ng of the plasmid DNA encoding FKBP12-Tankyrase(SAM) and 200 ng of one of the plasmid DNAs encoding fusion proteins composed of the fluorescent proteins and mTOR(FRB) were diluted with 30 μl of OptiMEM (manufactured by Life Technologies Corporation), and 1.2 μl of TurboFect Transfection Reagent (manufactured by Thermo Fisher Scientific Inc.) was added thereto and stirred. Then, the resultant was further mixed with 300 μl of the culture solution, subsequently added to the 293T cells, and observed 48 hours later.

Assay [8] has as its target T3, mTOR(FRB) and FKBP12 interaction. The experiment in a line: Degree of fluorescent focus (assembly) formation after rapamycin with TFG(PB1) (Example 9, Table 2). The format is cell-based. More on the design: key: ++: fluorescent foci were observed in 50% or less of the HeLaS3 cells; +: fluorescent foci were observed in the 293T cells expressing a larger amount of proteins than that in the HeLaS3 cells. The note with it: fluorescent protein fused to mTOR(FRB), KO1 and dAG (AB) in 293T cells.

T3 sequence (P42345 2025-2114): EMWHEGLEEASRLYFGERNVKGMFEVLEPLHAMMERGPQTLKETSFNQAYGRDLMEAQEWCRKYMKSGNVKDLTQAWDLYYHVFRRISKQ
T3 sequence (P62942 whole entry): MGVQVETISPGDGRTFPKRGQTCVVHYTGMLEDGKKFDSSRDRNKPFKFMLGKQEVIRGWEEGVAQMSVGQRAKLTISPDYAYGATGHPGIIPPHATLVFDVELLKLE
T2 sequence (Q07817 1-209): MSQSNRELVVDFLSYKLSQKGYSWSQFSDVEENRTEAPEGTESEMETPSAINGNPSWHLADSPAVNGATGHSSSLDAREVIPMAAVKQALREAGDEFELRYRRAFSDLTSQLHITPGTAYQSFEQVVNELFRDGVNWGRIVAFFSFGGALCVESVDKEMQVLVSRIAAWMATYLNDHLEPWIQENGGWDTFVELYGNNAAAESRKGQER
T1 sequence (Q07817 1-209): as above

Turning to `CN(C)CC[C@H](CSc1ccccc1)Nc1ccc(S(=O)(=O)NC(=O)c2ccc(N3CCN(Cc4ccccc4-c4ccc(Cl)cc4)CC3)cc2)cc1[N+](=O)[O-]` [ABT-737], the “time when the total fluorescence luminance reached a half value” is listed as “approximately 35 minutes” in assay [1] and “approximately 80 minutes” in assay [2].

Turning to `N#CC(=C(/N)Sc1ccccc1N)/C(C#N)=C(\N)Sc1ccccc1N` [U0126, reference compound], the “fluorescent foci after U0126 addition” value in assay [3] is on record as “the fluorescent foci were slowly decreased”.

Regarding `NCCc1c[nH]cn1` [histamine], in assay [4] (490 seconds after the cytoplasm calcium ion concentration was decreased), the “fluorescent foci at the later time point” value is “extinguished”. Also, in assay [4] (HeLaS3 cells expressing Calmodulin-AG and M13peptide-p62(PB1), 90 seconds after addition), the “fluorescent focus formation after ligand addition” value is on record as “fluorescent focus formation was detected”.

For `CC[C@H](C)C(=O)O[C@H]1CCC=C2C=C[C@H](C)[C@H](CC[C@@H]3C[C@@H](O)CC(=O)O3)[C@H]21` [mevastatin], the “interaction between Rac1 and RhoGDI” value in assay [5] is “reduced”. Besides, in assay [6], the “localization of the interaction between Rac1 and PBD” value is “the interaction took place only in the nuclei”.

For Azami-Green [AG], in assay [7], the “degree of fluorescent focus formation, DGKd (SAM)” value (“degree … DGKd (SAM)” for short) is on record as “+++ (fluorescent foci were observed in 50% or more of the HeLaS3 cells)”; the “degree of fluorescent focus formation, TEL (SAM)” value (“degree … TEL (SAM)” below) is “+++ (fluorescent foci were observed in 50% or more of the HeLaS3 cells)”; the “degree of fluorescent focus formation, Tankyrase (SAM)” value (from here on “degree … Tankyrase (SAM)”) is recorded as “+++ (fluorescent foci were observed in 50% or more of the HeLaS3 cells)”; the “degree of fluorescent focus formation, P62 (PB1)” value (“degree … P62 (PB1)” for short) is on record as “+++ (fluorescent foci were observed in 50% or more of the HeLaS3 cells)”. The “degree of fluorescent focus formation, TFG (PB1)” value (shortened to “degree … TFG (PB1)”) in assay [8] was “++ (fluorescent foci were observed in 50% or less of the HeLaS3 cells)”.

Take Kikume Green-Red [KikGR]: in assay [7], the “degree … DGKd (SAM)” value is “+++ (fluorescent foci were observed in 50% or more of the HeLaS3 cells)”; the “degree … TEL (SAM)” value is “+++ (fluorescent foci were observed in 50% or more of the HeLaS3 cells)”; the “degree … Tankyrase (SAM)” value is “+++ (fluorescent foci were observed in 50% or more of the HeLaS3 cells)”; the “degree … P62 (PB1)” value is recorded as “+++ (fluorescent foci were observed in 50% or more of the HeLaS3 cells)”. The “degree … TFG (PB1)” value in assay [8] is given as “++ (fluorescent foci were observed in 50% or less of the HeLaS3 cells)”.

On to Kusabira-Orange 1 [KO1], for which, in assay [7], the “degree … DGKd (SAM)” value is “+++ (fluorescent foci were observed in 50% or more of the HeLaS3 cells)”; the “degree … TEL (SAM)” value is on record as “+++ (fluorescent foci were observed in 50% or more of the HeLaS3 cells)”; the “degree … Tankyrase (SAM)” value was “++ (fluorescent foci were observed in 50% or less of the HeLaS3 cells)”; the “degree … P62 (PB1)” value is given as “+++ (fluorescent foci were observed in 50% or more of the HeLaS3 cells)”. In addition, the “degree … TFG (PB1)” value in assay [8] was “+”.

Take Midoriishi-Cyan1 [MiCy1]: in assay [7], the “degree … DGKd (SAM)” value was “+++ (fluorescent foci were observed in 50% or more of the HeLaS3 cells)”; the “degree … TEL (SAM)” value is “+++ (fluorescent foci were observed in 50% or more of the HeLaS3 cells)”; the “degree … Tankyrase (SAM)” value is reported as “+”; the “degree … P62 (PB1)” value is “+++ (fluorescent foci were observed in 50% or more of the HeLaS3 cells)”.

For dimeric Keima-Red [dKeima], in assay [7], the “degree … DGKd (SAM)” value is “+++ (fluorescent foci were observed in 50% or more of the HeLaS3 cells)”; the “degree … TEL (SAM)” value is “+++ (fluorescent foci were observed in 50% or more of the HeLaS3 cells)”; the “degree … Tankyrase (SAM)” value is on record as “++ (fluorescent foci were observed in 50% or less of the HeLaS3 cells)”; the “degree … P62 (PB1)” value is reported as “+++ (fluorescent foci were observed in 50% or more of the HeLaS3 cells)”.

On to monomeric Keima-Red [mKeima], for which, in assay [7], the “degree … DGKd (SAM)” value is listed as “+++ (fluorescent foci were observed in 50% or more of the HeLaS3 cells)”; the “degree … TEL (SAM)” value was “++ (fluorescent foci were observed in 50% or less of the HeLaS3 cells)”; the “degree … Tankyrase (SAM)” value is listed as “+”; the “degree … P62 (PB1)” value is listed as “+++ (fluorescent foci were observed in 50% or more of the HeLaS3 cells)”.

Consider monomeric Kusabira-Orange 1 [mKO1], for which, in assay [7], the “degree … DGKd (SAM)” value is on record as “+++ (fluorescent foci were observed in 50% or more of the HeLaS3 cells)”; the “degree … TEL (SAM)” value was “+++ (fluorescent foci were observed in 50% or more of the HeLaS3 cells)”; the “degree … Tankyrase (SAM)” value is listed as “+”; the “degree … P62 (PB1)” value is reported as “+++ (fluorescent foci were observed in 50% or more of the HeLaS3 cells)”.
